From paper PMC10397247
Values belong to the binder of their own block, whether it stands above or below them.

Tests used:
[1] = target: T1, 4H112-bN; experiment: two-hybrid library CCNG1;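 also: natural log of median RNA to DNA barcode read ratio; higher means stronger binding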
T1 chain: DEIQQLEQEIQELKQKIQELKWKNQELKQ

[2] = target: T2, 4H1158-bN; experiment: two-hybrid library CCNG1;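 also: natural log of median RNA to DNA barcode read ratio; higher means stronger binding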
T2 chain: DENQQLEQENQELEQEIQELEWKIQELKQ

[3] = target: T3, 4H118-bN; experiment: two-hybrid library CCNG1;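 also: natural log of median RNA to DNA barcode read ratio; higher means stronger binding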
T3 chain: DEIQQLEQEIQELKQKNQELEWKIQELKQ

[4] = target: T4, 4H170-bN; experiment: two-hybrid library CCNG1;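 also: natural log of median RNA to DNA barcode read ratio; higher means stronger binding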
T4 chain: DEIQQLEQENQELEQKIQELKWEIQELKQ

[5] = target: T5, 4H1831-bN; experiment: two-hybrid library CCNG1;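 also: natural log of median RNA to DNA barcode read ratio; higher means stronger binding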
T5 chain: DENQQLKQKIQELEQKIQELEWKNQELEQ

[6] = target: T6, 4H2586-bN; experiment: two-hybrid library CCNG1;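 also: natural log of median RNA to DNA barcode read ratio; higher means stronger binding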
T6 chain: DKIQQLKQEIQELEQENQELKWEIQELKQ

[7] = target: T7, 4H2627-bN; experiment: two-hybrid library CCNG1
T7 chain: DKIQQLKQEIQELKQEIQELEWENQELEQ

[8] = target: T8, 4H2673-bN; experiment: two-hybrid library CCNG1
T8 chain: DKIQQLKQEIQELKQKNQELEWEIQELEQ

[9] = target: T9, 4H2702-bN; experiment: two-hybrid library CCNG1
T9 chain: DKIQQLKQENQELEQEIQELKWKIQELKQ

[10] = target: T10, 4H3010-bN; experiment: two-hybrid library CCNG1
T10 chain: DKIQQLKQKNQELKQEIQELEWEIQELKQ

[11] = target: T11, 4H3112-bN; experiment: two-hybrid library CCNG1
T11 chain: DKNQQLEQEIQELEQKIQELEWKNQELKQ

[12] = target: T12, 4H3427-bN; experiment: two-hybrid library CCNG1
T12 chain: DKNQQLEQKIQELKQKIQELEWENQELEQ

[13] = target: T13, 4H346-bN; experiment: two-hybrid library CCNG1
T13 chain: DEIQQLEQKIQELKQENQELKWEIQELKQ

[14] = target: T14, 4H3926-bN; experiment: two-hybrid library CCNG1
T14 chain: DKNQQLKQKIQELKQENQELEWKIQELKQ

[15] = target: T15, 4H4073-bN; experiment: two-hybrid library CCNG1
T15 chain: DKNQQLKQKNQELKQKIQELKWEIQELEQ

[16] = target: T16, 4H457-bN; experiment: two-hybrid library CCNG1
T16 chain: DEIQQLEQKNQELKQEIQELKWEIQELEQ

[17] = target: T17, 4H575-bN; experiment: two-hybrid library CCNG1
T17 chain: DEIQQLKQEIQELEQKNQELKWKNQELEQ

[18] = target: T18, 4H683-bN; experiment: two-hybrid library CCNG1
T18 chain: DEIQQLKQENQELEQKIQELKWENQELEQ

[19] = target: T19, 4H754-bN; experiment: two-hybrid library CCNG1
T19 chain: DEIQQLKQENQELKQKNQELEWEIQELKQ

[20] = target: T20, 4H780-bN; experiment: two-hybrid library CCNG1
T20 chain: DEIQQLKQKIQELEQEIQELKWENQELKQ

[21] = target: T21, 4H797-bN; experiment: two-hybrid library CCNG1
T21 chain: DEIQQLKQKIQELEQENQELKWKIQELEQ

[22] = target: T22, 4H855-bN; experiment: two-hybrid library CCNG1
T22 chain: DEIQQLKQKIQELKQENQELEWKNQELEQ

[23] = target: T23, 4H918-bN; experiment: two-hybrid library CCNG1
T23 chain: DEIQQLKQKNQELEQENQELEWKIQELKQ

[24] = target: T24, 4H953-bN; experiment: two-hybrid library CCNG1
T24 chain: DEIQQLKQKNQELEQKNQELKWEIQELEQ

[25] = target: T25, 4H968-bN; experiment: two-hybrid library CCNG1
T25 chain: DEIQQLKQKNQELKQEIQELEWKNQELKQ

[26] = target: T26, 4H1035-AA; experiment: two-hybrid library CCmax
T26 chain: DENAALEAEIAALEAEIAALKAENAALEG

[27] = target: T27, 4H1064-AA; experiment: two-hybrid library CCmax; settings: mean of both orientations
T27 chain: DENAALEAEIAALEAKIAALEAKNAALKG

[28] = target: T28, 4H1109-AA; experiment: two-hybrid library CCmax; settings: mean of both orientations
T28 chain: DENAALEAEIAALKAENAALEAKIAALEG

[29] = target: T29, 4H1146-AA; experiment: two-hybrid library CCmax; settings: mean of both orientations
T29 chain: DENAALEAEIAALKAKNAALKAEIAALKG

[30] = target: T30, 4H1348-AA; experiment: two-hybrid library CCmax; settings: mean of both orientations
T30 chain: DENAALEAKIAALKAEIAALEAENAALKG

[31] = target: T31, 4H1391-AA; experiment: two-hybrid library CCmax; settings: mean of both orientations
T31 chain: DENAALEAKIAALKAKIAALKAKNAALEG

[32] = target: T32, 4H146-AA; experiment: two-hybrid library CCmax
T32 chain: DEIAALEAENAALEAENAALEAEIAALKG

[33] = target: T33, 4H1809-AA; experiment: two-hybrid library CCmax; settings: mean of both orientations
T33 chain: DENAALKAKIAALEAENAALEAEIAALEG

[34] = target: T34, 4H1854-AA; experiment: two-hybrid library CCmax; settings: mean of both orientations
T34 chain: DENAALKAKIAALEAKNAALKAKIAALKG

[35] = target: T35, 4H189-AA; experiment: two-hybrid library CCmax; settings: mean of both orientations
T35 chain: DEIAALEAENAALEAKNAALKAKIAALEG

[36] = target: T36, 4H2248-AA; experiment: two-hybrid library CCmax; settings: mean of both orientations
T36 chain: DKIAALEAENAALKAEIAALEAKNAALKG

[37] = target: T37, 4H2283-AA; experiment: two-hybrid library CCmax; settings: mean of both orientations
T37 chain: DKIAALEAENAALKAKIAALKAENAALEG

[38] = target: T38, 4H2713-AA; experiment: two-hybrid library CCmax
T38 chain: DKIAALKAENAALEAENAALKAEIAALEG

[39] = target: T39, 4H2742-AA; experiment: two-hybrid library CCmax; settings: mean of both orientations
T39 chain: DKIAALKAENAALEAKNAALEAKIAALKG

[40] = target: T40, 4H2948-AA; experiment: two-hybrid library CCmax; settings: mean of both orientations
T40 chain: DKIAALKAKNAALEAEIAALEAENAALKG

[41] = target: T41, 4H2991-AA; experiment: two-hybrid library CCmax; settings: mean of both orientations
T41 chain: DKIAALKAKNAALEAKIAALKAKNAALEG

[42] = target: T42, 4H3029-AA; experiment: two-hybrid library CCmax; settings: mean of both orientations
T42 chain: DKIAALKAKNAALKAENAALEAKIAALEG

[43] = target: T43, 4H3066-AA; experiment: two-hybrid library CCmax; settings: mean of both orientations
T43 chain: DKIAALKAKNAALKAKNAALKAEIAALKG

[44] = target: T44, 4H3102-AA; experiment: two-hybrid library CCmax; settings: mean of both orientations
T44 chain: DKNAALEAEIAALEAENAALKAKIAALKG

[45] = target: T45, 4H3121-AA; experiment: two-hybrid library CCmax; settings: mean of both orientations
T45 chain: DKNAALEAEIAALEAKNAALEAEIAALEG

[46] = target: T46, 4H3417-AA; experiment: two-hybrid library CCmax; settings: mean of both orientations
T46 chain: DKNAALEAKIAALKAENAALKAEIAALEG

[47] = target: T47, 4H3446-AA; experiment: two-hybrid library CCmax; settings: mean of both orientations
T47 chain: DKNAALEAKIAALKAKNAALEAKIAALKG

[48] = target: T48, 4H3591-AA; experiment: two-hybrid library CCmax; settings: mean of both orientations
T48 chain: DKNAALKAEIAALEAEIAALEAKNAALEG

[49] = target: T49, 4H3628-AA; experiment: two-hybrid library CCmax; settings: mean of both orientations
T49 chain: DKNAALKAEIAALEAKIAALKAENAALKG

[50] = target: T50, 4H3666-AA; experiment: two-hybrid library CCmax; settings: mean of both orientations
T50 chain: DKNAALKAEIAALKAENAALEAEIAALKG

[51] = target: T51, 4H3709-AA; experiment: two-hybrid library CCmax; settings: mean of both orientations
T51 chain: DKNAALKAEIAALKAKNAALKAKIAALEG

[52] = target: T52, 4H391-AA; experiment: two-hybrid library CCmax; settings: mean of both orientations
T52 chain: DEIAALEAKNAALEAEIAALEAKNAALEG

[53] = target: T53, 4H3920-AA; experiment: two-hybrid library CCmax; settings: mean of both orientations
T53 chain: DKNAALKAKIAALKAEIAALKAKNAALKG

[54] = target: T54, 4H3939-AA; experiment: two-hybrid library CCmax; settings: mean of both orientations
T54 chain: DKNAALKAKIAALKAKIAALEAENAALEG

[55] = target: T55, 4H428-AA; experiment: two-hybrid library CCmax; settings: mean of both orientations
T55 chain: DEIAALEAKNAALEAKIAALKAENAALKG

[56] = target: T56, 4H478-AA; experiment: two-hybrid library CCmax; settings: mean of both orientations
T56 chain: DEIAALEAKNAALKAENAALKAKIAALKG

[57] = target: T57, 4H497-AA; experiment: two-hybrid library CCmax; settings: mean of both orientations
T57 chain: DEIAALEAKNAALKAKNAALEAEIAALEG

[58] = target: T58, 4H656-AA; experiment: two-hybrid library CCmax; settings: mean of both orientations
T58 chain: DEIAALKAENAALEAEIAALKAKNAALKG

[59] = target: T59, 4H675-AA; experiment: two-hybrid library CCmax; settings: mean of both orientations
T59 chain: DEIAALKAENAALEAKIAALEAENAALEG

[60] = target: T60, 4H971-AA; experiment: two-hybrid library CCmax; settings: mean of both orientations
T60 chain: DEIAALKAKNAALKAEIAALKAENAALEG

interaction score [1]: 1.46
interaction score [2]: 0.877
interaction score [3]: -0.511
interaction score [4]: -0.245
interaction score [5]: 0.348
interaction score [6]: -1.21
interaction score [7]: 1.22
interaction score [8]: 0.592
interaction score [9]: 0.834
interaction score [10]: 1.25
interaction score [11]: 1.44
interaction score [12]: 1.06
interaction score [13]: -0.486
interaction score [14]: -1.67
interaction score [15]: 1.25
interaction score [16]: 0.723
interaction score [17]: -0.471
interaction score [18]: -0.968
interaction score [19]: -0.189
interaction score [20]: 0.755
interaction score [21]: -1.01
interaction score [22]: -0.582
interaction score [23]: -0.456
interaction score [24]: -0.805
interaction score [25]: 0.452
B1: 4H112-bN (peptide)
chain: DEIQQLEQEIQELKQKIQELKWKNQELKQ

interaction score [26]: -0.719
interaction score [27]: -0.486
interaction score [28]: -1.69
interaction score [29]: -1.34
interaction score [30]: 1.45
interaction score [31]: 0.63
interaction score [32]: -1.39
interaction score [33]: -1.83
interaction score [34]: -0.616
interaction score [35]: -1.24
interaction score [36]: -1.39
interaction score [37]: -1.67
interaction score [38]: -1.63
interaction score [39]: -1.51
interaction score [40]: -1.56
interaction score [41]: -1.12
interaction score [42]: -2.17
interaction score [43]: -0.363
interaction score [44]: -1.34
interaction score [45]: -1.67
interaction score [46]: -1.73
interaction score [47]: -1.17
interaction score [48]: -1.08
interaction score [49]: 1.36
interaction score [50]: -1.55
interaction score [51]: -0.573
interaction score [52]: -1.84
interaction score [53]: 1.9
interaction score [54]: 0.466
interaction score [55]: -1.35
interaction score [56]: -1.03
interaction score [57]: -1.73
interaction score [58]: -1.67
interaction score [59]: -2.03
interaction score [60]: -0.881
B2: 4H1035-AA (peptide)
chain: DENAALEAEIAALEAEIAALKAENAALEG
